Target: nsP13 helicase (SARS-CoV-2) (UniProt P0DTD1)

## ssDNA-F (25-nt)
  K half: 53 nM
